# Source: the DeepSol protein solubility set
# Assay: soluble on expression in E. coli; label from the status in PepcDB or PDB records
row,Sequence,soluble on expression in E. coli
1,MSLDKQNHKIFEILADKVSAKDNVITASGNAILLNYDVYILADKVRYDTKTKEALLEGNIKVYRGEGLLVKTDYVKLSLNEKYEIIFPFYVQDSVSGIWVSADIASGKDQKYKVKNMSTSGCSIDNPIWHVNATSGSFNMQKSHLSMWNPKIYVGDIPVLYLPYIFMSTSNKRTTGFLYPEFGTSNLDGFIYLQPFYLAPKNSWDMTFTPQIRYKRGFGLNFEARYINSKNDRFLFNARYFRNYTQYVKRYDLRNQNIYGFEFLSSSRDTLQKYFHLKSNIDNGHYIDFLYMNDLDYVRFEKVNKRITDATHMSRANYYLQTENNYYGLNIKYFLNLNKINNNRTFQSVPNLQYHKYLNSLYFRNLLYSVDYQFRNTAREIGYGYVQNALNVPVGLQFSLFKKYLSLGLWNDLQLSNVALMQSKNSFVPTIPNESREFGNFVSSNFSMYVNTDLAREYNKLFHTIQLEAIFNIPYYTFKNGLFSQNMYALSAQALNSYTSPLLRDYDYQGRLYDSVWNPSSILPSNASNKTVDLTLTQYLYGLGGQELLYFKISQLINLDDKVSPFRMPLESKIGFSPLTGLNIFGNVFYSFYQNRLEEISVNANYQRKFLSFNLSYFLKNNFSSGINSIVENEGHHHHHH,not soluble
2,MSLDLHLTNKLALITGSTKGIGKAIAIEMAREGTDVIINGRNEAEVTKVVKEIQTMFPDTHPQAGTADISIESQRATLLEKFPKVDILVNNMGIFEPMEYWDIDDATWEKFFTVNVLSGNALAKAYLPKMLAQDFGRIIFIASEEAVMPSGEMPQYSMTKTMNLSLAKSLSNLTVGTHVTVNTVMPGSTLTEGVEKMLEDMYADSDIPKEDWEKDFMKNHRSRSQIQRLIRPEEIGRFVTFVASPDSSSFSGEALRIDGGLVPTIEGHHHHHH,soluble
3,MSLDLKLGGQVILVVGGAGTIGSEVVKLLTEEGATAVAASRSTPLSIDASDEASVRAGIDQVIAEHGRLDGLVVSSAPAAQTLSAETADDPDTVLAAIEGKAITFMKAATVALEKMREAGHGRIVALSGMNSYKTLSTTASARNAALNVVVKNLADRHAGTGITVNAISPGFVVAEPDAEVNRANGDTTVEEVAEAIAFLLSPRTASISGEIISVGHKAKGEGHHHHHH,not soluble
4,MSLDMKTTHTSLPFAGHTLHFVEFDPASFREQDLLWLPHYAQLQHAGRKRKTEHLAGRIAAIYALREYGYKCVPAIGELRQPVWPAGVYGSISHCGTTALAVVSRQPIGIDIEEIFSAQTARELTDNIITPAEHKRLADCGLAFPLALTLAFSAKESAFKASEIQTDADFLDYQIISRNKQQVIIHRENEMFAVHWQIKEKIVITLCQHDEGHHHHHH,soluble
5,MSLDNPNSSIFADLLAKASELENIIVTLQHKIQGGYYFLNDIEIISEDDARNFDVELVRLKGICNHMQRYNTKAKMRNIDWPIDVVKTAMTETRSKVFETLDLMKELDGFRDLVSYLRIALSNVNDNDLKTEIISSIDGIKEVINKGKQARDAYKLKLEALKDRYATWYMEAYLKAHISEIDHGKKSAVMLSTEKQLCDIIKNASFINPSRYDNWLRKMNLLKVVNSSVNKNAILSVPTSVDGFNPSMQKDELPELEDLKDELKEIYAEYEQGFHDALEDPTILRNKEMLTQEERSTIQQFIDGNITLNPQYARILIDIINKLQRSFTKVEINHNEMLKIFSRPMTKQQALDALAAYIDNHSRGHKPEDIRIIVKEGHHHHHH,soluble
6,MSLDNQLINSIIEKYQFSKKQIEAVLTLLEEKNTVPFIARYRKEQTGGLDEVQIKQIDDEYQYMVNLQKRKEEVIKNIEQQGLLTEELKKDILKQNKLQRVEDLYRPFKQKKKTRATEAKRKGLEPLAIWMKARKHEVSIEEKAQQFINEEVQSVEDAIKGAQDIIAEQISDNPKYRTKILKDMYHQGVLTTSKKKNAEDEKGIFEMYYAYSEPIKRIANHRVLAVNRGEKEKVLSVKFEFDTTSVEDFIARQEINHNNVNRSYILEAIKDSLKRLIVPSIEREIHADLTEKAENHAIDVFSENLRNLLLQPPMKGKQILGVDPAFRTGCKLAVINPFGTFIAKGVIYPHPPVSKKEAAEKDFVQMVKAYDVQLIAIGNGTASRETEQFVADLIKKHQLPVQFIIVNEAGASVYSASEIARDEFPDFQVEERNAVSIGRHVQDPLSELVKIDPKSIGVGQYQHDFFQEGHHHHHH,soluble
7,MSLDPIEFIQKSASSIASTMHKLKLKYNPFSEKPIRGNTKFFVGRVSELREIGEILGSALHGSVANAAIVGTKGIGKSSMLNIIYYATKKQGHWVVEMTASQVTPRQFLIQLLYNILTENIITMSGTIKSDYMEHSSRILDMYRKLNNYGDKVPIHYPRERIERDLEYLINEVKSPDKLCIILIDEADQFAKKSCLSLLQFFHSFLYEEGILTFMAGSPTLMDDLTKISPPIKDRIPKIINMPPLSKDESYDLIRRRLEDAHIDGAEEFEPFTEEAIHKIVEECDGIPRKIIMTCSESISIAIRKGLTKIDEKVVKEAMHSLGISVGHQILNHLTPAQSEIVRAMAELGGSATVTQLAEYLKKSPSTIGTHLSDIYEMGYIYKEREGNNVYYKLSKELRDVLIGEDDEGHHHHHH,soluble
8,MSLDQFDCKVSATGGWDCSPLQNANANLPPRPAHTATSVSTAAAGSSVSGSGGETVEAEPTQRLVTESGGRALKSRSADYSHLDWIPREKLTAAQLAEIGPYCGGSYIEPVRPGMDDGAPSDESPTYVSAKASRYEQEKQIATLAGDVVLRQGSMQVEGDEANLHQLENRGELVGNVKLRDKGMLVVGDHAQVQLDNGEAQVDNAEYVIHKAHARGSALYAKRSENAIIMLKDGTYTRCEPSSNAWTLKGNNVKLNPATGFGTATNATLRVKDFPVFYTPYIYFPIDDRRQSGFLPPSFSSTSDTGFTLVTPYYFNLAPNYDATLYPRYMAKRGMMLEGEFRYLTHSSEGIVNAAYLNDKDDHREGFPDYSKDRWLYGLKNTTGLDSRWLAEVDYTRISDPYYFQDLDTDLGVGSTTYVNQRGTLTYRGDTFTGRLNAQAYQLATTTDVTPYDRLPQITFDGFLPYNPGGMQFTYGTEFVRFDRDLDENIYFNDDGSIRGKRPDASLQGLARATGDRMHLEPGMSLPMTRSWGYVTPTLKYLYTKYDLDLDSQGKTDLNKRDESFDSNQDRSLPLVKVDSGLYFDRDTTFAGTPFRQTLEPRAMYLYVPYKDQDSLPVFDTSEPSFSYDSLWRENRFTGKDRIGDANQLSLGVTSRFIEENGFERASISAGQIYYFRDRRVQLPGLTEKDLKRLNLDPSGLDNDSWRSPYAFAGQYRFNRDWRINSDFNWNPNTSRTESGSAIFHYQPEVDPGKVVNVGYRYRADARRFDSSRGTFRYGNENDIIKQHDFSVIWPLVPQWSVLARWQYDYNKNRTLEAFGGFEYDSCCWKLRLINRYWLDVDDDAFLVQSEKADRGIFLQIVLKGLGGIVGNKTEMFLDKGIQGYRQREEGHHHHHH,not soluble
9,MSLDQPVVGLITKTDTNPFFVKMKQGAEAAASKDGAKLITAAGKFDGDNASQVTAIENMMTAGAKAILITPSDTKAIVPSIKKARAAGVMVVALDTPTDPQDATDALFATDNFKAGVLIGKYAKAALNGKPAKIATLDLAPGVSVGVLRHNGFLEGFGVKEGDPSVVCSQDTRGDQAKGQTAMENCLQKSPDINVVYTINEPAAAGAYRALKAAGKDKSVMIVSIDGGCEGVRNVKAGAIAATSQQYPLKMASLGVTAGVEYAKTGKKVSGYQDTGVTLITDKPMAGIDSKDTKFGLDNCWGNEGHHHHHH,soluble
10,MSLDVISELVKKNGSKILLIVLDGLGGLPVKEGKTELELAKTPNLDKLVKNSATGLHIPVDWGITPGSGPGHLGLFGYDPIKYQIGRGILEALGLGIDVKDTDIAVRGNYATVEYRNGKPIVVDRRAGRIPTEENKRITAKLQEAIKEIDGVQVIIKPGMEHRLAIVFRFPEKLSPGSDAINDTDPQQVGKEPLEPKGENPNAEKVAEVVRKFIQRATEILRNEPKANYILLRGFSQKPDIPTMEERFGVKPCCIAVYPMYKGLASLVGMDVIEFEGSTIQDEIDTLKKVWNEYDYFFVHIKKTDSYGEDGNYEGKVSVIEDFDAHLPQFLELKPDVLAITGDHSTPSILKGHSWHPVPLLIHSPYVLGGTSERFTERECLKGELGIIPAVKITQLLLANALRLKKYGAEGHHHHHH,soluble
